# Data reported in the MegaScale stability set (Tsuboyama et al. 2023).
# B1: EHEE_rd2_1257 (parent)
# chain: EEERTFTNEEEARKAKKEAEKRGLRVTVTKDGTTWRVRIG
# Variants of: B1
# Test: folding stability dG (cDNA display proteolysis); higher = more stable
# Conditions: PBS, room temperature
row,Variant,folding stability dG [kcal/mol]
1,EEERTMTNEEEARKAKKEAEKRGLRVTVTKDGTTWRVRIG [F6M],0.184
2,EEERTYTNEEEARKAKKEAEKRGLRVTVTKDGTTWRVRIG [F6Y],2.19
3,EEERTWTNEEEARKAKKEAEKRGLRVTVTKDGTTWRVRIG [F6W],0.194
4,EEERTTTNEEEARKAKKEAEKRGLRVTVTKDGTTWRVRIG [F6T],-0.137
5,EEERTLTNEEEARKAKKEAEKRGLRVTVTKDGTTWRVRIG [F6L],0.227
6,EEERTVTNEEEARKAKKEAEKRGLRVTVTKDGTTWRVRIG [F6V],0.21
7,EEERTFMNEEEARKAKKEAEKRGLRVTVTKDGTTWRVRIG [T7M],1.89
8,EEERTFNNEEEARKAKKEAEKRGLRVTVTKDGTTWRVRIG [T7N],1.98
9,EEERTFVNEEEARKAKKEAEKRGLRVTVTKDGTTWRVRIG [T7V],1.7
10,EEERTFKNEEEARKAKKEAEKRGLRVTVTKDGTTWRVRIG [T7K],1.63
11,EEERTFYNEEEARKAKKEAEKRGLRVTVTKDGTTWRVRIG [T7Y],2.06
12,EEERTFHNEEEARKAKKEAEKRGLRVTVTKDGTTWRVRIG [T7H],1.86
13,EEERTFPNEEEARKAKKEAEKRGLRVTVTKDGTTWRVRIG [T7P],1.69
14,EEERTFCNEEEARKAKKEAEKRGLRVTVTKDGTTWRVRIG [T7C],1.95
15,EEERTFRNEEEARKAKKEAEKRGLRVTVTKDGTTWRVRIG [T7R],1.58
16,EEERTFGNEEEARKAKKEAEKRGLRVTVTKDGTTWRVRIG [T7G],1.68
17,EEERTFQNEEEARKAKKEAEKRGLRVTVTKDGTTWRVRIG [T7Q],1.83
18,EEERTFINEEEARKAKKEAEKRGLRVTVTKDGTTWRVRIG [T7I],1.56
19,EEERTFANEEEARKAKKEAEKRGLRVTVTKDGTTWRVRIG [T7A],1.87
20,EEERTFDNEEEARKAKKEAEKRGLRVTVTKDGTTWRVRIG [T7D],2.25
21,EEERTFENEEEARKAKKEAEKRGLRVTVTKDGTTWRVRIG [T7E],1.94
22,EEERTFFNEEEARKAKKEAEKRGLRVTVTKDGTTWRVRIG [T7F],2
23,EEERTFSNEEEARKAKKEAEKRGLRVTVTKDGTTWRVRIG [T7S],1.91
24,EEERTFWNEEEARKAKKEAEKRGLRVTVTKDGTTWRVRIG [T7W],1.77
25,EEERTFLNEEEARKAKKEAEKRGLRVTVTKDGTTWRVRIG [T7L],1.79

row,Variant,folding stability dG [kcal/mol]
1,GEERTFTNEEEARKAKKEAEKRGLRVTVTKDGTTWRVRIG [E1G],2.25
2,VEERTFTNEEEARKAKKEAEKRGLRVTVTKDGTTWRVRIG [E1V],2.57
3,KEERTFTNEEEARKAKKEAEKRGLRVTVTKDGTTWRVRIG [E1K],1.7
4,MEERTFTNEEEARKAKKEAEKRGLRVTVTKDGTTWRVRIG [E1M],2.38
5,NEERTFTNEEEARKAKKEAEKRGLRVTVTKDGTTWRVRIG [E1N],1.87
6,IEERTFTNEEEARKAKKEAEKRGLRVTVTKDGTTWRVRIG [E1I],2.74
7,TEERTFTNEEEARKAKKEAEKRGLRVTVTKDGTTWRVRIG [E1T],2.19
8,REERTFTNEEEARKAKKEAEKRGLRVTVTKDGTTWRVRIG [E1R],1.83
9,AEERTFTNEEEARKAKKEAEKRGLRVTVTKDGTTWRVRIG [E1A],2.21
10,FEERTFTNEEEARKAKKEAEKRGLRVTVTKDGTTWRVRIG [E1F],2.99
11,DEERTFTNEEEARKAKKEAEKRGLRVTVTKDGTTWRVRIG [E1D],2.1
12,SEERTFTNEEEARKAKKEAEKRGLRVTVTKDGTTWRVRIG [E1S],2.02
13,QEERTFTNEEEARKAKKEAEKRGLRVTVTKDGTTWRVRIG [E1Q],1.94
14,HEERTFTNEEEARKAKKEAEKRGLRVTVTKDGTTWRVRIG [E1H],2.05
15,LEERTFTNEEEARKAKKEAEKRGLRVTVTKDGTTWRVRIG [E1L],2.33
16,PEERTFTNEEEARKAKKEAEKRGLRVTVTKDGTTWRVRIG [E1P],2.07
17,WEERTFTNEEEARKAKKEAEKRGLRVTVTKDGTTWRVRIG [E1W],3.19
18,YEERTFTNEEEARKAKKEAEKRGLRVTVTKDGTTWRVRIG [E1Y],3.06
19,EGERTFTNEEEARKAKKEAEKRGLRVTVTKDGTTWRVRIG [E2G],1.66
20,EPERTFTNEEEARKAKKEAEKRGLRVTVTKDGTTWRVRIG [E2P],1.43
21,ERERTFTNEEEARKAKKEAEKRGLRVTVTKDGTTWRVRIG [E2R],1.97
22,EMERTFTNEEEARKAKKEAEKRGLRVTVTKDGTTWRVRIG [E2M],2.16
23,EWERTFTNEEEARKAKKEAEKRGLRVTVTKDGTTWRVRIG [E2W],2.86
24,EIERTFTNEEEARKAKKEAEKRGLRVTVTKDGTTWRVRIG [E2I],2.5
25,ELERTFTNEEEARKAKKEAEKRGLRVTVTKDGTTWRVRIG [E2L],2.26

row,Variant,folding stability dG [kcal/mol]
1,ESERTFTNEEEARKAKKEAEKRGLRVTVTKDGTTWRVRIG [E2S],2.06
2,EHERTFTNEEEARKAKKEAEKRGLRVTVTKDGTTWRVRIG [E2H],2.12
3,EFERTFTNEEEARKAKKEAEKRGLRVTVTKDGTTWRVRIG [E2F],2.6
4,EDERTFTNEEEARKAKKEAEKRGLRVTVTKDGTTWRVRIG [E2D],1.75
5,EQERTFTNEEEARKAKKEAEKRGLRVTVTKDGTTWRVRIG [E2Q],1.99
6,EYERTFTNEEEARKAKKEAEKRGLRVTVTKDGTTWRVRIG [E2Y],2.85
7,EKERTFTNEEEARKAKKEAEKRGLRVTVTKDGTTWRVRIG [E2K],1.73
8,ETERTFTNEEEARKAKKEAEKRGLRVTVTKDGTTWRVRIG [E2T],2.18
9,ENERTFTNEEEARKAKKEAEKRGLRVTVTKDGTTWRVRIG [E2N],1.81
10,EAERTFTNEEEARKAKKEAEKRGLRVTVTKDGTTWRVRIG [E2A],1.75
11,EVERTFTNEEEARKAKKEAEKRGLRVTVTKDGTTWRVRIG [E2V],2.3
12,EEERMFTNEEEARKAKKEAEKRGLRVTVTKDGTTWRVRIG [T5M],1.94
13,EEEREFTNEEEARKAKKEAEKRGLRVTVTKDGTTWRVRIG [T5E],1.65
14,EEERSFTNEEEARKAKKEAEKRGLRVTVTKDGTTWRVRIG [T5S],1.69
15,EEERYFTNEEEARKAKKEAEKRGLRVTVTKDGTTWRVRIG [T5Y],2.17
16,EEERIFTNEEEARKAKKEAEKRGLRVTVTKDGTTWRVRIG [T5I],2.56
17,EEERAFTNEEEARKAKKEAEKRGLRVTVTKDGTTWRVRIG [T5A],1.49
18,EEERRFTNEEEARKAKKEAEKRGLRVTVTKDGTTWRVRIG [T5R],1.52
19,EEERFFTNEEEARKAKKEAEKRGLRVTVTKDGTTWRVRIG [T5F],2.19
20,EEERPFTNEEEARKAKKEAEKRGLRVTVTKDGTTWRVRIG [T5P],0.253
21,EEERWFTNEEEARKAKKEAEKRGLRVTVTKDGTTWRVRIG [T5W],2.45
22,EEERKFTNEEEARKAKKEAEKRGLRVTVTKDGTTWRVRIG [T5K],1.17
23,EEERLFTNEEEARKAKKEAEKRGLRVTVTKDGTTWRVRIG [T5L],2.11
24,EEERVFTNEEEARKAKKEAEKRGLRVTVTKDGTTWRVRIG [T5V],2.47
25,EEERHFTNEEEARKAKKEAEKRGLRVTVTKDGTTWRVRIG [T5H],1.68

row,Variant,folding stability dG [kcal/mol]
1,EEERDFTNEEEARKAKKEAEKRGLRVTVTKDGTTWRVRIG [T5D],1.13
2,EEERGFTNEEEARKAKKEAEKRGLRVTVTKDGTTWRVRIG [T5G],0.704
3,EEERQFTNEEEARKAKKEAEKRGLRVTVTKDGTTWRVRIG [T5Q],1.6
4,EEERNFTNEEEARKAKKEAEKRGLRVTVTKDGTTWRVRIG [T5N],1.29
5,EEERTFTAEEEARKAKKEAEKRGLRVTVTKDGTTWRVRIG [N8A],1.07
6,EEERTFTDEEEARKAKKEAEKRGLRVTVTKDGTTWRVRIG [N8D],1.76
7,EEERTFTGEEEARKAKKEAEKRGLRVTVTKDGTTWRVRIG [N8G],0.865
8,EEERTFTMEEEARKAKKEAEKRGLRVTVTKDGTTWRVRIG [N8M],1.18
9,EEERTFTEEEEARKAKKEAEKRGLRVTVTKDGTTWRVRIG [N8E],1.35
10,EEERTFTLEEEARKAKKEAEKRGLRVTVTKDGTTWRVRIG [N8L],1.52
11,EEERTFTHEEEARKAKKEAEKRGLRVTVTKDGTTWRVRIG [N8H],1.34
12,EEERTFTIEEEARKAKKEAEKRGLRVTVTKDGTTWRVRIG [N8I],1.39
13,EEERTFTFEEEARKAKKEAEKRGLRVTVTKDGTTWRVRIG [N8F],1.09
14,EEERTFTKEEEARKAKKEAEKRGLRVTVTKDGTTWRVRIG [N8K],1.5
15,EENRTFTNEEEARKAKKEAEKRGLRVTVTKDGTTWRVRIG [E3N],1.37
16,EEYRTFTNEEEARKAKKEAEKRGLRVTVTKDGTTWRVRIG [E3Y],2.08
17,EEIRTFTNEEEARKAKKEAEKRGLRVTVTKDGTTWRVRIG [E3I],2.48
18,EEFRTFTNEEEARKAKKEAEKRGLRVTVTKDGTTWRVRIG [E3F],2
19,EELRTFTNEEEARKAKKEAEKRGLRVTVTKDGTTWRVRIG [E3L],2
20,EESRTFTNEEEARKAKKEAEKRGLRVTVTKDGTTWRVRIG [E3S],1.66
21,EETRTFTNEEEARKAKKEAEKRGLRVTVTKDGTTWRVRIG [E3T],1.99
22,EEDRTFTNEEEARKAKKEAEKRGLRVTVTKDGTTWRVRIG [E3D],1.67
23,EEVRTFTNEEEARKAKKEAEKRGLRVTVTKDGTTWRVRIG [E3V],2.33
24,EEKRTFTNEEEARKAKKEAEKRGLRVTVTKDGTTWRVRIG [E3K],0.758
25,EEARTFTNEEEARKAKKEAEKRGLRVTVTKDGTTWRVRIG [E3A],1.34

row,Variant,folding stability dG [kcal/mol]
1,EEGRTFTNEEEARKAKKEAEKRGLRVTVTKDGTTWRVRIG [E3G],1.28
2,EEHRTFTNEEEARKAKKEAEKRGLRVTVTKDGTTWRVRIG [E3H],1.42
3,EEMRTFTNEEEARKAKKEAEKRGLRVTVTKDGTTWRVRIG [E3M],1.88
4,EERRTFTNEEEARKAKKEAEKRGLRVTVTKDGTTWRVRIG [E3R],0.931
5,EEQRTFTNEEEARKAKKEAEKRGLRVTVTKDGTTWRVRIG [E3Q],1.44
6,EEWRTFTNEEEARKAKKEAEKRGLRVTVTKDGTTWRVRIG [E3W],2.3
7,EEPRTFTNEEEARKAKKEAEKRGLRVTVTKDGTTWRVRIG [E3P],0.936
8,EEEWTFTNEEEARKAKKEAEKRGLRVTVTKDGTTWRVRIG [R4W],3.03
9,EEEQTFTNEEEARKAKKEAEKRGLRVTVTKDGTTWRVRIG [R4Q],2
10,EEEETFTNEEEARKAKKEAEKRGLRVTVTKDGTTWRVRIG [R4E],1.37
11,EEESTFTNEEEARKAKKEAEKRGLRVTVTKDGTTWRVRIG [R4S],1.46
12,EEEATFTNEEEARKAKKEAEKRGLRVTVTKDGTTWRVRIG [R4A],1.59
13,EEETTFTNEEEARKAKKEAEKRGLRVTVTKDGTTWRVRIG [R4T],1.61
14,EEEFTFTNEEEARKAKKEAEKRGLRVTVTKDGTTWRVRIG [R4F],2.97
15,EEEPTFTNEEEARKAKKEAEKRGLRVTVTKDGTTWRVRIG [R4P],0.462
16,EEEHTFTNEEEARKAKKEAEKRGLRVTVTKDGTTWRVRIG [R4H],2.17
17,EEEVTFTNEEEARKAKKEAEKRGLRVTVTKDGTTWRVRIG [R4V],1.96
18,EEENTFTNEEEARKAKKEAEKRGLRVTVTKDGTTWRVRIG [R4N],1.14
19,EEEITFTNEEEARKAKKEAEKRGLRVTVTKDGTTWRVRIG [R4I],2.38
20,EEEDTFTNEEEARKAKKEAEKRGLRVTVTKDGTTWRVRIG [R4D],0.771
21,EEEYTFTNEEEARKAKKEAEKRGLRVTVTKDGTTWRVRIG [R4Y],2.93
22,EEEKTFTNEEEARKAKKEAEKRGLRVTVTKDGTTWRVRIG [R4K],1.97
23,EEEGTFTNEEEARKAKKEAEKRGLRVTVTKDGTTWRVRIG [R4G],1.14
24,EEELTFTNEEEARKAKKEAEKRGLRVTVTKDGTTWRVRIG [R4L],2.8
25,EEEMTFTNEEEARKAKKEAEKRGLRVTVTKDGTTWRVRIG [R4M],2.53
